From publication PMC12207366, “Protonated Glutamate and Aspartate Side Chains Can Recognize Phosphodiester Groups via Strong and Short Hydrogen Bonds in Biomacromolecular Complexes” (Angewandte Chemie (International Ed. in English), 2025)

How the values were obtained:
Glu190 = Glu190 (UniProt position 190, EALVEEEKTGD); assay: ITC; conditions: 20 °C, 200 mM NaCl, 50 mM Tris (pH 8.5-7.5), 50 mM BisTris (pH 7.0-6.0) or 50 mM Na-acetate (pH 5.5-4.0), each with 1 mM beta-mercaptoethanol
[1] = unstructured peptides; cited from earlier work

Q: What does the source list for “PilF GSPII-B domain (PilF159-302) Q190E (Thermus thermophilus; Q190E)”?
A: pKa (Glu190; c-di-GMP-bound protein (pKab of the thermodynamic cycle)): 7.5; pKa (Glu190; ligand-free protein (pKaf of the thermodynamic cycle)): 6.3

Q: For `N[C@@H](CCC(=O)O)C(=O)O` [glutamate], which “pKa of side chain carboxylate group” value [1] is on record?
A: ~4.4

Q: For `N[C@@H](CC(=O)O)C(=O)O` [aspartate], which “pKa of side chain carboxylate group” value [1] is on record?
A: ~3.9
